According to the supplement of paper PMC9170038:

System: MS2 coat protein
Test: apparent KD of MS2 coat protein; designed switch direction (-1 OFF switch, 1 ON switch): 1; higher = weaker reporter binding
Outline: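 An oligonucleotide input, 200 uM small-molecule ligand, or no input was present during titration of SNAP-549-labelled MS2 coat protein, which was doubled from 0.7 or 1.5 nM to 3 µM. Designed RNA switches had been transcribed on Illumina chips by stalled E. coli RNA polymerase. Apparent KD per design is the median over clusters of curves fitted to normalised cluster fluorescence.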

[1] = Eterna round: R95, input ligand: FMN 200 uM
[2] = Eterna round: R95, input ligand: microRNA oligo, concentration not stated
[3] = Eterna round: R95, input ligand: none
[4] = input ligand: microRNA oligo, concentration not stated

Sequence: GGAGCCGGCACUGAGGAUAUUCAUAUUAAAACAUGAGGAUCACCCAUGUAGGCCAGAAGGCCUUGGGAGAAGGCAGGUCGGCUCG [salish99_ss2_r3_075] (puzzle: Same State 2)
- apparent KD of MS2 coat protein [1]: 27.1 nM
- apparent KD of MS2 coat protein [2]: 408 nM
- apparent KD of MS2 coat protein [3]: 901 nM

Sequence: GGAGCCGGCCUAGGAUAUUUCAUAAAGAAACAUGAGGAUCACCCAUGUAGGCCAGAAGGCCUUGGGAAGAAGGAGGUCGGCUCC [Loop Effect - G27] (Eterna round: R96, puzzle: Same State NG 2)
- apparent KD of MS2 coat protein (input ligand: FMN 200 uM): 12.4 nM
- apparent KD of MS2 coat protein [4]: 29 nM
- apparent KD of MS2 coat protein (input ligand: none): 28.7 nM

Sequence: GGAGCCGGCCUAGGAUAUUUCAUAGAAAAACAUGAGGAUCACCCAUGUAGGCCAGAAGGCCUUGGGAAGAAGGAGGUCGGCUCC [Loop Effect - G25] (Eterna round: R96, puzzle: Same State NG 2)
- apparent KD of MS2 coat protein (input ligand: FMN 200 uM): 9.45 nM
- apparent KD of MS2 coat protein [4]: 19.5 nM
- apparent KD of MS2 coat protein (input ligand: none): 31.2 nM

Sequence: GGAGGACAUGAGGAUCACCCAUGUGGAUGAACGCUAGGAUAUGCGUGCAGGAAGAGUGGAGCAGAAGGAGUGGGUU [JR_SS1_Sub046] (puzzle: Same State 1)
- apparent KD of MS2 coat protein [2]: 21.7 nM

Sequence: GGAUCAUGACGAGGAUAUGGUACAUGAGGAUCACCCAUGUAUGUACCACGACGGAAACGUCGAAUCCAGAAGGCGUCAUGAUCG [Mat - Same State NG 2 - JL mod - D39] (Eterna round: R96, puzzle: Same State NG 2)
- apparent KD of MS2 coat protein (input ligand: FMN 200 uM): 25.3 nM
- apparent KD of MS2 coat protein [4]: 70.1 nM
- apparent KD of MS2 coat protein (input ligand: none): 120 nM

Sequence: GGAUCGGAGGCAGGAUAUGGGCUCAGAACAUGAGGAUCACCCAUGUAAAACGGCGCAAUGCGCCACCAGAAGGGCCUCCAGUCG [Esussoed] (Eterna round: R96, puzzle: Same State NG 2)
- apparent KD of MS2 coat protein (input ligand: FMN 200 uM): 13.2 nM
- apparent KD of MS2 coat protein [4]: 25.7 nM
- apparent KD of MS2 coat protein (input ligand: none): 44.1 nM

Sequence: GGAUGAUUAAUAGGAUAUUAUUUGUAAUUUGGUUAAGAAGGAUUAAUGAUUUAAACGACCUGUUACAUGAGGAUCACCCAUGUU [JR_SSNG1_Sub089] (Eterna round: R96, puzzle: Same State NG 1)
- apparent KD of MS2 coat protein [4]: 76.5 nM

Sequence: GGCAGGUGCAGGCUUGCUUGCACCUGGAGACAUGAGGAUCACCCAUGUUUGGGACAAGCUUUGCUCUUCGUCUUUUC [JL ViennaUCT Isusreraar mod 6] (puzzle: Sensor for hsa-mir-208a)
- apparent KD of MS2 coat protein [1]: 74.1 nM
- apparent KD of MS2 coat protein [2]: 105 nM
- apparent KD of MS2 coat protein [3]: 107 nM

Sequence: GGCGAACAGGCUAACAUGAGGAUCACCCAUGUGGACUCAUGUUAGGAUAUCGGGAAGGAGGAAACCGAGAAGGGACGGUGAGCC [AK SSNG3-V2-47] (Eterna round: R96, puzzle: Same State NG 3)
- apparent KD of MS2 coat protein (input ligand: FMN 200 uM): 18.8 nM
- apparent KD of MS2 coat protein [4]: 9.25 nM
- apparent KD of MS2 coat protein (input ligand: none): 82.3 nM

Sequence: GGCUAUCGGCGUACCGAUAGCUGGUAUGUACAUGAGGAUCACCCAUGUCAUGUACAGGCUUUUUGCUCGUCUUAUUG [JL-shm-2.39 JL mod] (puzzle: Sensor for hsa-mir-208a)
- apparent KD of MS2 coat protein [1]: 134 nM
- apparent KD of MS2 coat protein [2]: 30.3 nM
- apparent KD of MS2 coat protein [3]: 149 nM

Sequence: GGGCCAGCUUGUGCUGGGCCUUCGCAUGCACAUGAGGAUCACCCAUGUCGUGUACAUGCUUGGUGCCCGUCUUUCCC [Photon Torp-14] (puzzle: Sensor for hsa-mir-208a)
- apparent KD of MS2 coat protein [1]: 84.5 nM
- apparent KD of MS2 coat protein [2]: 20.9 nM
- apparent KD of MS2 coat protein [3]: 85.8 nM

Sequence: GGUAAACAUGAGGAUCACCCAUGUAAUAAUAUGGGAGGAUAUGGGAAUUAAUUAAUUAAACCAGAAGGCCUAAUGG [Mat - Same State 1 - D86] (puzzle: Same State 1)
- apparent KD of MS2 coat protein [1]: 133 nM
- apparent KD of MS2 coat protein [2]: 424 nM
- apparent KD of MS2 coat protein [3]: 628 nM

Sequence: GGUACUAACACAGGAUAUGCUAUCCUUUGGGUAGCAGAAGGGUGGUACAUGAGGAUCACCCAUGUGGUGCCAGGGCGUGAGCCC [JL SSNG1 1.96] (Eterna round: R96, puzzle: Same State NG 1)
- apparent KD of MS2 coat protein (input ligand: FMN 200 uM): 408 nM
- apparent KD of MS2 coat protein [4]: 538 nM
- apparent KD of MS2 coat protein (input ligand: none): 659 nM

Sequence: GGUAGGUUACUACCAAACAUGAGGAUCACCCAUGUAAGUGGGAAGGAUAUGGUACCUUUUAGGUACCAGAAGGUCCAAUUAAUU [JL Fiskers NG3ss - 2 mod 5] (Eterna round: R96, puzzle: Same State NG 3)
- apparent KD of MS2 coat protein (input ligand: FMN 200 uM): 205 nM
- apparent KD of MS2 coat protein [4]: 511 nM
- apparent KD of MS2 coat protein (input ligand: none): 3700 nM

Sequence: GGUAGGUUACUACCAGACAUGAGGAUCACCCAUGUAAAUGGGAAGGAUAUGGUACCGUUUCGGUACCAGAAGGUCCUAAGUGAG [JL SSNG3 1.48] (Eterna round: R96, puzzle: Same State NG 3)
- apparent KD of MS2 coat protein (input ligand: FMN 200 uM): 667 nM
- apparent KD of MS2 coat protein [4]: 367 nM
- apparent KD of MS2 coat protein (input ligand: none): 2280 nM

Sequence: GGUCCAGCCUGAGCUGGACAAAAGCAUGUACAUGAGGAUCACCCAUGUCAUGUACAAGCUUUUUGCUCGUCUUAAAU [Mat - hsa-mir-208a - 84] (puzzle: Sensor for hsa-mir-208a)
- apparent KD of MS2 coat protein [1]: 495 nM
- apparent KD of MS2 coat protein [2]: 16.1 nM
- apparent KD of MS2 coat protein [3]: 800 nM

Sequence: GGUCCAGCCUGAGCUGGACAAAAGCAUGUACAUGAGGAUCACCCAUGUCAUGUACAAGCUUUUUGCUCGUCUUAAGU [Mat - hsa-mir-208a - 86] (Eterna round: R96, puzzle: Sensor for hsa-mir-208a)
- apparent KD of MS2 coat protein (input ligand: FMN 200 uM): 625 nM
- apparent KD of MS2 coat protein [4]: 14.1 nM
- apparent KD of MS2 coat protein (input ligand: none): 687 nM

Sequence: GGUCCAGCCUGAGCUGGACAAAAGCAUGUACAUGAGGAUCACCCAUGUCAUGUACAAGCUUUUUGCUCGUCUUAAGU [Mat - hsa-mir-208a - 86] (puzzle: Sensor for hsa-mir-208a)
- apparent KD of MS2 coat protein [1]: 508 nM
- apparent KD of MS2 coat protein [2]: 16.8 nM
- apparent KD of MS2 coat protein [3]: 927 nM

Sequence: GGUCCAGCCUGAGCUGGACAAAAGCAUGUACAUGAGGAUCACCCAUGUCAUGUACAAGCUUUUUGCUCGUCUUGAAA [JL mod - D87 - 8] (puzzle: Sensor for hsa-mir-208a)
- apparent KD of MS2 coat protein [1]: 359 nM
- apparent KD of MS2 coat protein [2]: 16.5 nM
- apparent KD of MS2 coat protein [3]: 867 nM

Sequence: GGUCCAGCCUGAGCUGGACAAAAGCAUGUACAUGAGGAUCACCCAUGUUCAUGUACAAGCUUUUUGCUCGUCUUAAA [salish99_208a_r3_035] (puzzle: Sensor for hsa-mir-208a)
- apparent KD of MS2 coat protein [1]: 427 nM
- apparent KD of MS2 coat protein [2]: 14.7 nM
- apparent KD of MS2 coat protein [3]: 633 nM

Sequence: GGUCCAGCCUGAGCUGGACAAAAGCAUGUACAUGAGGAUCACCCAUGUUCAUGUACAAGCUUUUUGCUCGUCUUAAU [salish99_208a_r3_036] (puzzle: Sensor for hsa-mir-208a)
- apparent KD of MS2 coat protein [1]: 525 nM
- apparent KD of MS2 coat protein [2]: 15 nM
- apparent KD of MS2 coat protein [3]: 492 nM

Sequence: GGUCCCUACGCACAGGAUAUUCUUUUGGCAACAUGAGGAUCACCCAUGUGUGCCGAUCAUGGUUAGAAGAAGGGUGGUAGGGACC [Usisus] (Eterna round: R96, puzzle: Same State 2)
- apparent KD of MS2 coat protein (input ligand: FMN 200 uM): 10 nM
- apparent KD of MS2 coat protein [4]: 10.5 nM
- apparent KD of MS2 coat protein (input ligand: none): 19.8 nM

Sequence: GGUCCCUACGCACAGGAUAUUCUUUUGGCAACAUGAGGAUCACCCAUGUGUGCCGAUCAUGGUUAGAAGAAGGGUGGUAGGGACC [Usisus] (puzzle: Same State 2)
- apparent KD of MS2 coat protein [1]: 9.87 nM
- apparent KD of MS2 coat protein [2]: 12.9 nM
- apparent KD of MS2 coat protein [3]: 13.5 nM

Sequence: GGUCCCUACGCACAGGAUAUUCUUUUGGCAACAUGAGGAUCACCCAUGUGUGCCGAUCAUGGUUAGAAGAAGGGUGGUAGGGACG [Cesovexe] (puzzle: Same State 2)
- apparent KD of MS2 coat protein [1]: 12 nM
- apparent KD of MS2 coat protein [2]: 11.4 nM
- apparent KD of MS2 coat protein [3]: 16.8 nM

Sequence: GGUCCGGCCUGAGCUGGACCGAAGCAUGUACAUGAGGAUCACCCAUGUCAUGUACAGGCUUUUUGCUCGUCUUGUUG [JL-shm-2.14 JL Mod] (puzzle: Sensor for hsa-mir-208a)
- apparent KD of MS2 coat protein [1]: 691 nM
- apparent KD of MS2 coat protein [2]: 17.2 nM
- apparent KD of MS2 coat protein [3]: 746 nM

Sequence: GGUCGGAACCACAUGAGGAUCACCCAUGUUCCGGAAACGGCACAGGAUAUCUGUCCGAAAAGGUCAGAGAAGGGUGAACCGACC [Fiskers NG3ss - 76] (Eterna round: R96, puzzle: Same State NG 3)
- apparent KD of MS2 coat protein (input ligand: FMN 200 uM): 285 nM
- apparent KD of MS2 coat protein [4]: 247 nM
- apparent KD of MS2 coat protein (input ligand: none): 445 nM

Sequence: GGUCGGACAAAACAUGAGGAUCACCCAUGUCCGGAAACGGCAUAGGAUAUCUGUCCGAAAAGGUCAGAGAAGGGUGAACCGACC [Fiskers NG3ss - 70] (Eterna round: R96, puzzle: Same State NG 3)
- apparent KD of MS2 coat protein (input ligand: FMN 200 uM): 91.2 nM
- apparent KD of MS2 coat protein [4]: 26.1 nM
- apparent KD of MS2 coat protein (input ligand: none): 140 nM

Sequence: GGUGAGAGAGUCUAGGAUAUGAAAGGAGAGACAUGAGGAUCACCCAUGUAAGAGAGAGAGGAGAGUUAGAAGGAGAAGAGAGUGG [Altered State 2-23 - Jieux - Same State 2] (puzzle: Same State 2)
- apparent KD of MS2 coat protein [1]: 26.8 nM
- apparent KD of MS2 coat protein [2]: 32 nM
- apparent KD of MS2 coat protein [3]: 47 nM

Sequence: GUAAAACAUGAGGAUCACCCAUGUCAACAAAGUCGAGGAUAUGGGCAAAUAAAAUAAGAACCAGAAGGCGAAUAAU [salish99_SS1_r3_011] (puzzle: Same State 1)
- apparent KD of MS2 coat protein [1]: 31.6 nM
- apparent KD of MS2 coat protein [2]: 254 nM
- apparent KD of MS2 coat protein [3]: 325 nM

Sequence: GUAAUACAUGAGGAUCACCCAUGUCAAUGUAGUCGAGGAUAUGGGUAGCUAUGAGGCGUACUAGAAGGCGAGGAGU [JL-ss1-3.18 ViennaUCT mod] (puzzle: Same State 1)
- apparent KD of MS2 coat protein [1]: 258 nM
- apparent KD of MS2 coat protein [2]: 72.1 nM
- apparent KD of MS2 coat protein [3]: 85.8 nM

Sequence: GUACUACAUGAGGAUCACCCAUGUACAAAGGUACGAGGAUAUGCAUGGACGAAAGUUGGUGCAGAAGGCGUGGUAC [Pin2Pin #5] (puzzle: Same State 1)
- apparent KD of MS2 coat protein [1]: 21.8 nM
- apparent KD of MS2 coat protein [2]: 24.6 nM
- apparent KD of MS2 coat protein [3]: 22.9 nM

Sequence: GUACUACAUGAGGAUCACCCAUGUACAAAUGUACGAGGAUAUGCAUGGACGAAAGUUGGUGCAGAAGGCGUAGUAC [Pin2Pin #4] (puzzle: Same State 1)
- apparent KD of MS2 coat protein [2]: 27.1 nM
